From patent US5756684, “Cloning and expression of PUR protein” (Mount Sinai School of Medicine of the City of New York)

Legend:
GST-Pur-alpha = target: T1, GST-Pur-alpha (Homo sapiens, UniProt Q00577 SEQ:1-322); assay: EMSA; 7.5 pmol; Tat at 1:1 enhances binding nearly 10-fold; details: tags: N-terminal GST; label: 32P end
T1 sequence: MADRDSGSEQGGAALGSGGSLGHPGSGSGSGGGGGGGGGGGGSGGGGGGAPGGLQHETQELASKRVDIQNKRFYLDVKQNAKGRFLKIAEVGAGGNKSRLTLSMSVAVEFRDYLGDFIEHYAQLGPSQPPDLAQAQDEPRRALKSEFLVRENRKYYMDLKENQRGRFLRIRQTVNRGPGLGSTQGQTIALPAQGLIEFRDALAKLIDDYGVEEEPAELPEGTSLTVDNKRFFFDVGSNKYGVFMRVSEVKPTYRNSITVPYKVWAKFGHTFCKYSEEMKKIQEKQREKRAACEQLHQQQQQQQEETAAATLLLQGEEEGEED
Method: FIG. 21A. Specificity of binding of Purα to the JCV upTAR element. The different oligonucleotide probes used for the indicated reactions are: JCV+, the purine-rich single strand of the upTAR element; JCV ds, the double-stranded upTAR element, only the pyrimidine-rich strand of which is labeled; JCV−, the pyrimidine-rich strand of the upTAR element.
8.1.2. Binding of PURα to the JVC upTAR PUR Element in the Presence or Absence of Tat All gel shifts were performed as described in Section 6.1.2. using ^32P end-labeled 24-mer oligonucleotide probe representing a dimer of the upTAR element. The purine-rich strand of this oligonucleotide is: 5'-[…]-3' SEQ ID NO:51. For both panels A and B, all Tat, Purα and Purα deletion mutant proteins were employed GST fusion proteins prepared by purification on glutathione agarose columns as described for FIG. 20 and eluted with glutathione. In both panels for lanes labeled +, 7.5 pmoles of each indicated protein were used. Specificity of binding of Purα to the JCV upTAR element. The different oligonucleotide probes used for the indicated reactions are: JCV+, the purine-rich single strand of the upTAR element; JCV ds, the double-stranded upTAR element, only the pyrimidine-rich strand of which is labeled; JCV−, the pyrimidine-rich strand of the upTAR element. Effect of Tat upon biding of a series of Purα deletion mutants to the JCV upTAR element. […]

GST-Tat = GST-Tat (HIV-1, UniProt P04608 P04608:1-86); assay: EMSA; Tat stated not to bind the upTAR element itself; details: tags: GST; label: 32P end

B1: JCV+ (upTAR purine-rich strand dimer) (ssDNA)
DNA: GGAGGCGGAGGCGGAGGCGGAGGC
- binding result (GST-Pur-alpha): binds
- binding result (GST-Tat): no binding
